According to US20180208675A1 (Novo Nordisk, published 2018):
Changes are numbered by the printed parent chain.

B1: Fab 0094 (Fab fragment of mAb 2007) (Fab, V domains shown)
VH: EVQLVESGGGLVKPGGSLRLSCAASGFTFSNYAMSWVRQAPGKGLEWVSTISRSGSYSYYPDSVKGRFTISRDNAKNSLYLQMNSLRAEDTAVYYCARLGGYDEGDAMDSWGQGTTVTVSS
VL: DIVMTQTPLSLSVTPGQPASISCKSSQSLLESDGKTYLNWYLQKPGQSPQLLIYLVSILDSGVPDRFSGSGSGTDFTLKISRVEAEDVGVYYCLQATHFPQTFGGGTKVEIKR
notes: KPI-2 specific
B2: Fab 0095 (Fab fragment of mAb 2014) (Fab, V domains shown)
VH: B1 VH with P61A
VL: B1 VL with Y41L, K44R, Q47E, Q50K
notes: KPI-2 specific
B3: Fab 0088 (Fab fragment of mAb 2021) (Fab, V domains shown)
VH: B1 VH with A40T, G42E, G44R, S49A, Y60F, K65Q
VL: B1 VL
notes: free C-terminal cysteine; KPI-2 specific
B4: Fab 0089 (Fab fragment of mAb 4F110) (Fab, V domains shown)
VH: QVQLQQSGAELVKPGASVKLSCKASGYTFISYYMYWVKQRPGQGLEWIGEINPSNGDTNLNEKFKSKATLTVDKSSSTVYMQLSSLTSEDSAVYYCTRWDRFDGFVYWGQGTLVTVSA
VL: ETTVTQSPASLSMAIGGKVTIRCIISTNIDDDINWYQQKPGEPPKLLISEGNTLRPGVPSRFSSSGYGTDFVFTIENMLSEDVADYYCLQSDDLPYTFGGGTKLEIKR
notes: Chimeric mouse/human Fab; HC truncated after the hinge cysteine; KPI-3 specific
B5: Fab 0313 (Fab fragment of mAb 2000) (Fab, V domains shown)
VH: B1 VH with P61A
VL: B1 VL
notes: Fab of the initial grafted HzTFPI4F36; KPI-2 specific
B6: mAb 2F45 (antibody, V domains shown)
VH: QVQLKQSGPGLVQPSQSLSISCTVSGFSLTGYGVHWIRQSPGKGLEWLGVIWRGGSIDYNAAFMSRLSITKDNSKSQVFFKMNSLQADDTAIYYCAKNSHGNYVGYAMDYWGQGTSVTVSS
VL: DIVMTQSQKFMSTTVGDRVSITCKASQNVGTAVAWYQQKPGQSPELLIYSASNRYTRVPDRFTGSGSGTDFTLTISNMQSEDLADYFCQQYTSYPTFGGGTKLEIKR

biological target: T1, human TFPI alpha (full-length TFPIα) (human, UniProt P10646 29-304); test: cell-based or functional assay

thrombin peak (nM) at 6.25 nM, FVIII-neutralised plasma + 2 nM TFPIα [nM] | thrombin peak (nM) at 12.5 nM, FVIII-neutralised plasma + 2 nM TFPIα [nM] | thrombin peak (nM) at 25.0 nM, FVIII-neutralised plasma + 2 nM TFPIα [nM] | thrombin peak (nM) at 50.0 nM, FVIII-neutralised plasma + 2 nM TFPIα [nM] | thrombin peak (nM) at 100 nM, FVIII-neutralised plasma + 2 nM TFPIα [nM] | Binder
5.9 | 10.6 | 14.3 | 18.9 | 20.3 | B1
13.3 | 19.4 | 22.4 | 25.1 | 24.6 | B2
38.4 | 64.2 | 69.8 | 67.7 | 48.1 | B3

biological target: T1, human TFPI alpha (full-length TFPIα); test: SPR (Biacore T200), Fab captured on Human Fab Binder, TFPIα in solution, 1:1 fit
From the text: Binding interaction analysis was obtained by Surface Plasmon Resonance in a Biacore T200 instrument. Human Fab Binder (Human Fab Capture Kit, GE Healthcare) was immobilized to a series S CM4 sensor chip (GE Healthcare) in flow-cells 1-4 at 10000 response units (RU) using the amine coupling protocol available within the Biacore T-200 control software (GE Healthcare) and the reagents provided with the Amine Coupling Kit (GE Healthcare).The relevant Fab fragment or Fab-Fab conjugate was captured in flow-cell 2, 3 or 4 at a fixed concentration. Different concentrations of TFPI were tested by diluting TFPI in the running buffer (10 mM Hepes, pH 7.4, 300 mM NaCl, 5 mM CaCl₂, 0.05% Surfactant P20, 1 mg/ml BSA). Each sample was assayed using 300 seconds of contact time followed by 600 seconds of dissociation time at 50 μl/min flow rate. A buffer blank was also assayed. The sensor surface was regenerated with 10 mM Glycine pH 2.1 with two cycles each of 30 seconds at 50 μl/min flow rate.
Biacore T200 Evaluation software was used to analyse the data. Determination of binding constants (kₒₙ, koff, KD) was obtained assuming a 1:1 interaction of TFPI and the Fab variant or Fab-Fab conjugate of interest.

Kd [nM] | koff [s⁻¹] | kon [M⁻¹ s⁻¹] | Binder
0.11 | 0.00057 | 5e+06 | B4
4.4 | 0.00066 | 150000 | B1
42 | 0.0021 | 49000 | B5
0.78 | 0.003 | 3.9e+06 | B2
0.06 | 0.0001 | 1.7e+06 | B3

biological target: endogenous TFPI of normal human plasma (human, UniProt P10646 29-304, limits assumed); test: cell-based or functional assay

thrombin peak (nM) at 6.25 nM, FVIII-neutralised plasma, endogenous TFPI [nM] | thrombin peak (nM) at 12.5 nM, FVIII-neutralised plasma, endogenous TFPI [nM] | thrombin peak (nM) at 25.0 nM, FVIII-neutralised plasma, endogenous TFPI [nM] | thrombin peak (nM) at 50.0 nM, FVIII-neutralised plasma, endogenous TFPI [nM] | thrombin peak (nM) at 100 nM, FVIII-neutralised plasma, endogenous TFPI [nM] | Binder
35.9 | 45 | 60.2 | 73.9 | 74.1 | B1
74.2 | 81.3 | 84.9 | 85.4 | 84.7 | B2
96.8 | 98.1 | 102 | 101 | 87.7 | B3

biological target: T1, human TFPI alpha (full-length TFPIα); test: cell-based or functional assay; remark: another data set of the same source

lag time (min), 200 nM mAb (2 x 100 nM), FVIII-neutralised plasma + 20 nM TFPIα [min] | Binder
9 | B6
